# From article PMC4256047, “Structural and Functional Profiling of Environmental Ligands for Estrogen Receptors” (Environmental Health Perspectives, 2014)
# Where no end group is shown, it is not given here. fluorescein = fluorescein label on the N-terminus of the peptide
# T1: human wt-ERα LBD (estrogen receptor alpha ligand-binding domain, amino acids 302-552) (human, UniProt P03372 302-552)
# T1 sequence (looked up): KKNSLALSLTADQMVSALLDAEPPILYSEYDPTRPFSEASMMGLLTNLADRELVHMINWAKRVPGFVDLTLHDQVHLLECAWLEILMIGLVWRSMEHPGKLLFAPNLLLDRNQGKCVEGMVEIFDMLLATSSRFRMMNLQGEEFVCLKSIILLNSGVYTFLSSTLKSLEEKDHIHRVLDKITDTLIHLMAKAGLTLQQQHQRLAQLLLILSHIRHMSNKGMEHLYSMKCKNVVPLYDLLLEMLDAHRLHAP
# B1: fluorescein-RHKILHRLLQEGS peptide corresponding to the NR box 2-binding motif of SRC-1 (peptide)
# peptide: fluorescein-RHKILHRLLQEGS
# notes: also called SRC-1 NR2 peptide; fluorescein-labeled SRC-1 NR2 peptide; source: bought: EZbiolab
# Experiments:
# Details in all cases: both partners purified
# [1] = molecular target: T1, human wt-ERα LBD (estrogen receptor …); test: fluorescence polarisation; fluorescence anisotropy; 4 nM fluorescein-SRC-1 NR2 peptide, LBD diluted 2-fold from 10 uM (ERα) or 20 uM (ERβ); with BPC at 20 uM (ERα) or 40 uM (ERβ); 20 mM Tris pH 8.0, 150 mM NaCl, 5 mM DTT, 10% glycerol
# [2] = molecular target: T2, human wt-ERβ LBD (estrogen receptor beta ligand-binding domain, amino acids 261-502) (human, UniProt Q92731 261-502); test: as above
# T2 construct: Cloned into pET-32a; N-terminal thioredoxine-hexahistidine tag removed with TEV protease; not shown: thioredoxin, N-terminal, cleaved; His6, N-terminal, cleaved
# [3] = molecular target: T1, human wt-ERα LBD (estrogen receptor …); test: fluorescence polarisation; fluorescence anisotropy; 4 nM fluorescein-SRC-1 NR2 peptide, LBD diluted 2-fold from 10 uM (ERα) or 20 uM (ERβ); with DDE at 20 uM (ERα) or 40 uM (ERβ); 20 mM Tris pH 8.0, 150 mM NaCl, 5 mM DTT, 10% glycerol
# [4] = molecular target: T2, human wt-ERβ LBD (estrogen receptor …); test: fluorescence polarisation; fluorescence anisotropy; 4 nM fluorescein-SRC-1 NR2 peptide, LBD diluted 2-fold from 10 uM (ERα) or 20 uM (ERβ); with HPTE at 20 uM (ERα) or 40 uM (ERβ); 20 mM Tris pH 8.0, 150 mM NaCl, 5 mM DTT, 10% glycerol
# [5] = molecular target: T1, human wt-ERα LBD (estrogen receptor …); test: fluorescence polarisation; fluorescence anisotropy; 4 nM fluorescein-SRC-1 NR2 peptide, LBD diluted 2-fold from 10 uM (ERα) or 20 uM (ERβ); with E2 at 20 uM (ERα) or 40 uM (ERβ); 20 mM Tris pH 8.0, 150 mM NaCl, 5 mM DTT, 10% glycerol
# [6] = molecular target: T2, human wt-ERβ LBD (estrogen receptor …); test: as above
# [7] = molecular target: T1, human wt-ERα LBD (estrogen receptor …); test: fluorescence polarisation; fluorescence anisotropy; 4 nM fluorescein-SRC-1 NR2 peptide, LBD diluted 2-fold from 10 uM (ERα) or 20 uM (ERβ); with BPA at 20 uM (ERα) or 40 uM (ERβ); 20 mM Tris pH 8.0, 150 mM NaCl, 5 mM DTT, 10% glycerol
# [8] = molecular target: T2, human wt-ERβ LBD (estrogen receptor …); test: as above
# T2 sequence (Q92731 261-502): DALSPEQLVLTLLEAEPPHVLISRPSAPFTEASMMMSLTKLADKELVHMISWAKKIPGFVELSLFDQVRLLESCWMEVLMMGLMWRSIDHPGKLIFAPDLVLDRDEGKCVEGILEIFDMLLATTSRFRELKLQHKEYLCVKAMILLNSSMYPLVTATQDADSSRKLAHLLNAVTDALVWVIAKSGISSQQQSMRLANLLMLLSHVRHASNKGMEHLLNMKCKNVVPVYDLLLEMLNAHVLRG
binder,measurement,setting,value
B1,Kd,[1],9070 nM
same,Kd,[2],6320 nM
same,Kd,[3],4100 nM
same,Kd,[4],10900 nM
same,Kd,[5],110 nM
same,Kd,[6],680 nM
same,Kd,[7],1760 nM
same,Kd,[8],1310 nM
